Key:
[1] = molecular target: T1, CD38 on the surface of Daudi cells (human, UniProt P28907 1-300); experiment: cell-based or functional assay
[2] = molecular target: T1, CD38 on the surface of Daudi cells; experiment: flow cytometry on Daudi cells, anti-human IgG-Alexa647, fit in GraphPad Prism
Protocol: Daudi cells were washed twice with PBS and incubated for 1 hour on ice with serially diluted antibodies in FACS buffer (PBS containing 2% FBS) as indicated in table 2. Cells were washed three times with PBS and incubated with 1:200 diluted anti-human IgG-Alexa647 in FACS buffer for 30 min at 4° C. in darkness. After three times wash with PBS, cells were analyzed using flowcytometer.

[3] = molecular target: T2, recombinant biotinylated CD38-avi protein (extracellular domain of human CD38) (human, UniProt P28907 43-300, biotinylated (avi tag)); experiment: capture ELISA: antibody captured by anti-human Fc, biotinylated CD38-avi 0.5 ug/ml, fit in GraphPad Prism
T2 construct: Bought from ACRO biosystems; also called CD38 recombinant protein; not shown: avi tag
Protocol: After 6 washes, plate was incubated with 1:1000 diluted streptavidin-HRP (BD Bioscience) in PBS™ at RT for 30 min.

B1: IgG418 full antibody (antibody, V domains shown)
VH: QVQLQQSGPGLVKPSQTLSLTCAISGGSVSSNSAAWNWIRQSPSRGLEWLGRTYYRSKWYNDYAVSVKSRITINPDTSKNQFSLQLNSVTPEDTAVYYCARDALAAAGTYGYYYYYGMDVWGQGTMVTVSS
VL: QSALTQPASVSGSPGQSITISCTGTSSDVGGYNYVSWYQQHPGKAPKLVIYEGTQRPSGVSSRFSGSKSGNTASLTISGLQAEDEADYYCSSYTSSSFYVFGTGTKLTVLG
notes: also called IgG418 WT; IgG418-WT
- CDC IC50 on Daudi cells (ratio of live P1 cells, 7AAD flow cytometry) [1]: 9.8 nM
- maximal ADCC activity on Daudi cells relative to Darzalex (Jurkat effector, luciferase) [1]: 1.4 fold
- Kd [2]: 3.1 nM
- Kd [3]: 0.082 nM

B2: afucosylated IgG418 (antibody, V domains shown)
VH: B1 VH
VL: B1 VL
modifications: afucosylated glycan (produced in FUT8 knockout CHO-K1 cells)
- ADCC IC50 on Daudi cells relative to Darzalex (Jurkat effector, luciferase) [1]: ~10 fold
- maximal ADCC activity on Daudi cells relative to Darzalex (Jurkat effector, luciferase) [1]: 1.6 fold
